Measured values taken from US20210355194A1 (TWIST BIOSCIENCE, published 2021).
Like-named read-outs stand apart in the source and are kept apart here.

How the values were obtained:
[1] = biological target: SARS-CoV-2 spike on VSV-pseudotype SARS-CoV-2 (SARS-CoV-2, UniProt P0DTC2 14-1273); test: cell-based or functional assay
[2] = biological target: T1, SARS-CoV-2 spike on live SARS-CoV-2 virus (SARS-CoV-2, UniProt P0DTC2 14-1273); test: cell-based or functional assay
[3] = biological target: T1, SARS-CoV-2 spike on live SARS-CoV-2 …; test: cell-based or functional assay; remark: listed apart in the source
[4] = biological target: Acro COVID S1 (S1N-C82E8) (SARS-CoV-2, UniProt P0DTC2 16-685); test: phage ELISA
[5] = biological target: T2, SARS-CoV-2 S protein trimer (SARS-CoV-2, UniProt P0DTC2 14-1208); test: Carterra SPR, direct capture (DC), S trimer
[6] = biological target: T2, SARS-CoV-2 S protein trimer; test: Carterra SPR, DB format, S trimer
[7] = biological target: T3, Acro COVID S1 (S1N-C82E8) (SARS-CoV-2, UniProt P0DTC2 16-685); test: phage ELISA
T3 construct: domain: subunit 1 (S1)

[8] = biological target: T3, Acro COVID S1 (S1N-C82E8); test: phage ELISA; remark: listed apart in the source
[9] = biological target: T2, SARS-CoV-2 S protein trimer; test: Carterra SPR, Fc capture, S trimer

B1: variant 2-5 (antibody, V domains shown)
VH: EVQLLESGGGLVQPGGSLRLSCAASGFTFSDFAMAWVRQAPGKGLEWVSAISGSGDITYYADSVKGRFTISRDNSKNTLYLQMNSLRAEDTAVYYCAREADGLHSPWHFDLWGQGTLVTVSS
VL: DIQMTQSPSSLSASVGDRVTITCRASQSIHTYLNWYQQKPGKAPKLLIYAASALASGVPSRFSGSGSGTDFTLTISSLQPEDFATYYCQQSYSAPPYTFGQGTKVEIK
[1]
  NC50: 18.3 µg/mL
[2]
  EC50: 18.3 µg/mL
[3]
  EC80: 106 µg/mL

B2: variant 2-12 (antibody, V domains shown)
VH: EVQLLESGGGLVQPGGSLRLSCAASGFTFSDYPMNWVRQAPGKGLEWVSTISGSGGITFYADSVKGRFTISRDNSKNTLYLQMNSLRAEDTAVYYCVRHDEYSFDYWGQGTLVTVSS
VL: DIQMTQSPSSLSASVGDRVTITCRASQSIDNYLNWYQQKPGKAPKLLIYGVSALQSGVPSRFSGSGSGTDFTLTISSLQPEDFATYYCQQSHSAPPYFFGQGTKVEIK
[4]
  specificity ELISA, fold over background: 39.8 fold over background

B3: 2-8 (antibody, V domains shown)
VH: EVQLLESGGGLVQPGGSLRLSCAASGFTFSDFAMAWVRQAPGKGLEWVSAISGSGDITYYADSVKGRFTISRDNSKNTLYLQMNSLRAEDTAVYYCAREADGLHSPWHFDLWGQGTLVTVSS
VL: DIQMTQSPSSLSASVGDRVTITCRASQSIDTYLNWYQQKPGKAPKLLIYAASALASGVPSRFSGSGSGTDFTLTISSLQPEDFATYYCQQSYSAPPYTFGQGTKVEIK
notes: also called variant 2-8
[5]
  Kd: 47.4 nM
[6]
  Kd: 115 nM

B4: SARS-CoV-2 S1 variant 2-5 (antibody, V domains shown)
VH: EVQLLESGGGLVQPGGSLRLSCAASGFTFSDFAMAWVRQAPGKGLEWVSAISGSGDITYYADSVKGRFTISRDNSKNTLYLQMNSLRAEDTAVYYCAREADGLHSPWHFDLWGQGTLVTVSS
VL: DIQMTQSPSSLSASVGDRVTITCRASQSIHTYLNWYQQKPGKAPKLLIYAASALASGVPSRFSGSGSGTDFTLTISSLQPEDFATYYCQQSYSAPPYTFGQGTKVEIK
[7]
  ELISA fold over background: 38.3 fold
[8]
  ELISA fold over background: 38.3 fold

B5: 2-12 (antibody, V domains shown)
VH: EVQLLESGGGLVQPGGSLRLSCAASGFTFSDYPMNWVRQAPGKGLEWVSTISGSGGITFYADSVKGRFTISRDNSKNTLYLQMNSLRAEDTAVYYCVRHDEYSFDYWGQGTLVTVSS
VL: DIQMTQSPSSLSASVGDRVTITCRASQSIDNYLNWYQQKPGKAPKLLIYGVSALQSGVPSRFSGSGSGTDFTLTISSLQPEDFATYYCQQSHSAPPYFFGQGTKVEIK
notes: also called variant 2-12
[5]
  Kd: 63.8 nM
[6]
  Kd: 6.4 nM
[9]
  Kd: 3.2 nM

B6: variant 2-8 (antibody, V domains shown)
VH: EVQLLESGGGLVQPGGSLRLSCAASGFTFSDFAMAWVRQAPGKGLEWVSAISGSGDITYYADSVKGRFTISRDNSKNTLYLQMNSLRAEDTAVYYCAREADGLHSPWHFDLWGQGTLVTVSS
VL: DIQMTQSPSSLSASVGDRVTITCRASQSIDTYLNWYQQKPGKAPKLLIYAASALASGVPSRFSGSGSGTDFTLTISSLQPEDFATYYCQQSYSAPPYTFGQGTKVEIK
[4]
  specificity ELISA, fold over background: 35.9 fold over background

B7: 2-4 (antibody, V domains shown)
VH: EVQLLESGGGLVQPGGSLRLSCAASGFTFSDFAMAWVRQAPGKGLEWVSAISGSGDITYYADSVKGRFTISRDNSKNTLYLQMNSLRAEDTAVYYCAREADGLHSPWHFDLWGQGTLVTVSS
VL: DIQMTQSPSSLSASVGDRVTITCRASQSIDTYLNWYQQKPGKAPKLLIYAASALASGVPSRFSGSGSGTDFTLTISSLQPEDFATYYCQQSYSAPPYTFGQGTKVEIK
notes: also called variant 2-4
[6]
  Kd: 4340 nM

B8: 2-5 (antibody, V domains shown)
VH: EVQLLESGGGLVQPGGSLRLSCAASGFTFSDFAMAWVRQAPGKGLEWVSAISGSGDITYYADSVKGRFTISRDNSKNTLYLQMNSLRAEDTAVYYCAREADGLHSPWHFDLWGQGTLVTVSS
VL: DIQMTQSPSSLSASVGDRVTITCRASQSIHTYLNWYQQKPGKAPKLLIYAASALASGVPSRFSGSGSGTDFTLTISSLQPEDFATYYCQQSYSAPPYTFGQGTKVEIK
notes: also called variant 2-5
[5]
  Kd: 17.3 nM
[9]
  Kd: 90.2 nM

B9: variant 2-13 (antibody, V domains shown)
VH: EVQLLESGGGLVQPGGSLRLSCAASGFTFSDYPMNWVRQAPGKGLEWVSAISGSGDNTYYADSVKGRFTISRDNSKNTLYLQMNSLRAEDTAVYYCVRHDEYSFDYWGQGTLVTVSS
VL: DIQMTQSPSSLSASVGDRVTITCRASQSIDTYLNWYQQKPGKAPKLLIYGASALESGVPSRFSGSGSGTDFTLTISSLQPEDFATYYCQQSHSAPPYFFGQGTKVEIK
[4]
  specificity ELISA, fold over background: 27.3 fold over background

B10: 2-9 (antibody, V domains shown)
VH: EVQLLESGGGLVQPGGSLRLSCAASGFTFPRYAMSWVRQAPGKGLEWVSTISGSGSTTYYADSVKGRFTISRDNSKNTLYLQMNSLRAEDTAVYYCARLIDAFDIWGQGTLVTVSS
VL: DIQMTQSPSSLSASVGDRVTITCRASQRIGTYLNWYQQKPGKAPKLLIYAASNLEGGVPSRFSGSGSGTDFTLTISSLQPEDFATYYCQQNYSTTWTFGQGTKVEIK
notes: also called variant 2-9
[9]
  Kd: 23600 nM

B11: variant 2-9 (antibody, V domains shown)
VH: EVQLLESGGGLVQPGGSLRLSCAASGFTFPRYAMSWVRQAPGKGLEWVSTISGSGSTTYYADSVKGRFTISRDNSKNTLYLQMNSLRAEDTAVYYCARLIDAFDIWGQGTLVTVSS
VL: DIQMTQSPSSLSASVGDRVTITCRASQRIGTYLNWYQQKPGKAPKLLIYAASNLEGGVPSRFSGSGSGTDFTLTISSLQPEDFATYYCQQNYSTTWTFGQGTKVEIK
[4]
  specificity ELISA, fold over background: 24.1 fold over background

B12: variant 2-2 (antibody, V domains shown)
VH: EVQLLESGGGLVQPGGSLRLSCAASGFTFSRHAMNWVRQAPGKGLEWVSGISGSGDETYYADSVKGRFTISRDNSKNTLYLQMNSLRAEDTAVYYCARDLPASYYDSSGYYWHNGMDVWGQGTLVTVSS
VL: DIQMTQSPSSLSASVGDRVTITCRASQTINTYLNWYQQKPGKAPKLLIYSASTLQSGVPSRFSGSGSGTDFTLTISSLQPEDFATYYCQQSYSTFTFGQGTKVEIK
[1]
  NC50: 67.6 µg/mL
[2]
  EC50: 67.6 µg/mL
[3]
  EC80: 355 µg/mL

B13: SARS-CoV-2 S1 variant 2-2 (antibody, V domains shown)
VH: EVQLLESGGGLVQPGGSLRLSCAASGFTFSRHAMNWVRQAPGKGLEWVSGISGSGDETYYADSVKGRFTISRDNSKNTLYLQMNSLRAEDTAVYYCARDLPASYYDSSGYYWHNGMDVWGQGTLVTVSS
VL: DIQMTQSPSSLSASVGDRVTITCRASQTINTYLNWYQQKPGKAPKLLIYSASTLQSGVPSRFSGSGSGTDFTLTISSLQPEDFATYYCQQSYSTFTFGQGTKVEIK
[7]
  ELISA fold over background: 39.4 fold
[8]
  ELISA fold over background: 39.4 fold

B14: 2-2 (antibody, V domains shown)
VH: EVQLLESGGGLVQPGGSLRLSCAASGFTFSRHAMNWVRQAPGKGLEWVSGISGSGDETYYADSVKGRFTISRDNSKNTLYLQMNSLRAEDTAVYYCARDLPASYYDSSGYYWHNGMDVWGQGTLVTVSS
VL: DIQMTQSPSSLSASVGDRVTITCRASQTINTYLNWYQQKPGKAPKLLIYSASTLQSGVPSRFSGSGSGTDFTLTISSLQPEDFATYYCQQSYSTFTFGQGTKVEIK
notes: also called variant 2-2
[5]
  Kd: 1.4 nM
[6]
  Kd: 1.2 nM
[9]
  Kd: 0.8 nM
